Experimental data taken from patent US11612667B2, “Enhanced in vivo targeting of radiolabelled peptides with the means of enzyme inhibitors” (Advanced Accelerator Applications USA, Inc., priority 2011, dated 2023).
Like-named read-outs stand apart in the source and are kept apart here. Non-standard residues stand in square brackets, D forms with d. Residues, ends and D or L forms follow the SMILES beside them. *: point of attachment. DOTA = O=C(O)CN1CCN(CC(=O)O)CCN(CC(=O)*)CCN(CC(=O)O)CC1; Tle = CC(C)(C)[C@H](N)C(=O)O; X1 = NCCNCC(CNCCN)C(=O)*; Dab = NCC[C@H](N)C(=O)O; βAla = NCCC(=O)O

Key:
NEP = NEP (Homo sapiens, UniProt P08473); settings: reversible competitive inhibitor; cited from earlier work
Chain of NEP (P08473 whole entry): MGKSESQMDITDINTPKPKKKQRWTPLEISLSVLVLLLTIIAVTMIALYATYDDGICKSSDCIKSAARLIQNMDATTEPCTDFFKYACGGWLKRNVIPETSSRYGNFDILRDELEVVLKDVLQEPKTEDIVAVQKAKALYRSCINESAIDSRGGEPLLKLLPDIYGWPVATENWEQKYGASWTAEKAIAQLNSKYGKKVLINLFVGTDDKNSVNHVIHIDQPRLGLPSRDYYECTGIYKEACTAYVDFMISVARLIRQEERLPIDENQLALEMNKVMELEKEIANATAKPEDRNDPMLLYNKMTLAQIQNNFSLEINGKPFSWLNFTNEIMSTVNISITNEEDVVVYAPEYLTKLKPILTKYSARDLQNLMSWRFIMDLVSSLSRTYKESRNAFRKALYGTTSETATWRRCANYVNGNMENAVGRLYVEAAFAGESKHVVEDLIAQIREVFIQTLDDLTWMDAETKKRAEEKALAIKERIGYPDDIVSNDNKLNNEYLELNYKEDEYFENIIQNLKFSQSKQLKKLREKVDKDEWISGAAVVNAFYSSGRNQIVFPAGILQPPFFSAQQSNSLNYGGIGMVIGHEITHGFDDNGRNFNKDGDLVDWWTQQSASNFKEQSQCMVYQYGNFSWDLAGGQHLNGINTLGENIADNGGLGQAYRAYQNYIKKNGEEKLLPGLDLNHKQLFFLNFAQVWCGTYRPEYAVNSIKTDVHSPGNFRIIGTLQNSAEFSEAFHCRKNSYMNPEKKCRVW

AR4-2J tumors (rsst2+) = tested on: AR4-2J tumors (rsst2+); parameters: species or system SCID mice; settings: SCID, mouse, in vivo, 4 h
Method: FIG. 1D: Biodistribution of [(^111In-DOTA)Ala^1]Somatostatin-14 in SCID mice bearing AR4-2J tumors (rsst2^+) at 4 h pi.
FIG. 2C: Biodistribution of [(^111In-DOTA)Ala^1, DTrp^8]Somatostatin-14 in SCID mice bearing AR4-2J tumors (rsst2^+) at 4 h pi.
Of great importance is the direct translation of PA-(or race) induced radiopeptide stabilization into meaningful and dramatic increase of tumor uptake in animals. Indeed, uptake in the rsst2^+ AR4-2J tumor after injection of ^111In[(DOTA)Ala^1]SS14 reached 13.87±2.4% ID/g in the PA-treated group at 4 h pi vs. 0.67±0.1% ID/g in the non-treated controls, while in the race pre-treated mice tumor values reached 3.51±0.2% ID/g, as presented in FIG. 1B. The corresponding values for the DTrp^8-analog, shown in FIG. 2B, reach 9.06±3.57% ID/g (PA group), 4.18±2.28% ID/g (race group) and 1.82±0.36% ID/g (non-treated controls).

WiDr tumors (hNTS1+) = assay: Biodistribution / tumor uptake in SCID mice bearing WiDr tumors (hNTS1+); settings: SCID, mouse, in vivo, 4 h
Method: FIG. 4H: Biodistribution of [^99mTc]Demotensin 6 in SCID mice bearing WiDr tumors (hNTS1^+) at 4 h pi. Bars represent average uptake as mean % injected dose per gram (% ID/g) of at least 4 animals with standard deviation (control at 4 h 2nd bars); three additional groups of animals received either excess NT(1-13) and PA (100 μg blocker and 300 μg PA—first bars), or PA (300 μg PA—3rd bars) or PA and Lis (300 μg PA+250 μg Lis—4th bars). Bl=blood, Li=liver, He=heart, Ki=kidneys, St=stomach, In=intestines, Sp=spleen, Mu=muscle, Lu=lungs, Pa=pancreas, Fe=femur and Tu=WiDr tumor.
FIG. 5H: Biodistribution of [^99mTc]Demotensin 1 in SCID mice bearing WiDr tumors (hNTS1+) at 4 h pi. Bars represent average uptake as mean % injected dose per gram (% ID/g) of at least 4 animals with standard deviation (control at 4 h 2nd bars); three additional groups of animals received either excess NT and PA (100 μg and 300 μg PA, respectively—first bars), or PA (300 μg PA—3rd bars) or PA and Lis (300 μg PA+300 μg Lis—4th bars). Bl=blood, Li=liver, He=heart, Ki=kidneys, St=stomach, In=intestines, Sp=spleen, Mu=muscle, Lu=lungs, Pa=pancreas, Fe=femur and Tu=WiDr tumor.
In FIG. 4B the effects of such regimens on SCID mice bearing the human colon adenocarcinoma WiDr tumor (a hNTS1R^+ tumor) on enhancing in vivo tumor targeting are presented.
In FIG. 5B the effects of above regimens on SCID mice bearing WiDr tumors (hNTS1R^+) on enhancing in vivo tumor targeting are shown.

[1] = mouse; cited from earlier work
[2] = human; cited from earlier work
[3] = parameters: species or system Swiss albino mice; settings: mouse, in vivo, 5 min
Method: Whole blood was collected 5 min postinjection (pi), blood cells were removed and major proteins were precipitated and then the supernatant was analyzed by RP-HPLC coupled to a gamma detector.
Alternatively, the dual NEP and ACE inhibitor racecadotril (race; 2.5 mg) was ip injected 45-60 min prior to radioligand injection and the same procedure was followed as described above.
To test the in vivo stability, ^111In-DOTA-MG11 was injected in the tail vein of Swiss albino mice and 5 min afterwards blood was collected, blood cells were removed and major proteins were precipitated and then the supernatant was analyzed by RP-HPLC coupled to a gamma detector. As shown in the radiochromatogram of FIG. 3A, the major part of ^111In-DOTA-MG11 was consumed during this period (<5% intact peptide still detected), in agreement with previous reports. Further, ^111In-DOTA-MG11 was co-injected together with PA or injected 1 h after ip injection of race (2.5 mg) in more mice and the same protocol was followed as above. Amazingly, the percentage of ^111In-DOTA-MG11 found intact in the blood of the PA-treated mice was raised from <5% to 75% and in the race-pretreated mice to 73%.
For ex vivo blood analysis, [^99mTc]Demotensin 6 was injected in the tail vein of Swiss albino mice and blood collected 5 min thereafter was analyzed as previously described. The effect of PA on stability was studied by co-injection of PA along with [^99mTc]Demotensin 6. Furthermore, a PA dose study was performed with the PA injected dose ranging from 300 μg down to 0.03 μg and results are summarized in FIG. 4A.
Additional groups of radiopeptides with relevance for nuclear medicine applications have been studied for their in vivo stability. Radiopeptides were injected in the tail vein of healthy mice, either alone, or with a NEP inhibitor (PA—300 μg), or with a NEP (PA—300 μg) and an ACE (Lis—300 μg) inhibitor mixture; alternatively, another NEP inhibitor prodrug (race—2.5 mg) was ip injected in the animals ˜45 min prior to radioligand injection. Blood was collected 5 min afterwards, and analyzed by RP-HPLC after suitable preparation, as previously described.

AR4-2J tumors (rCCK2R+) = tested on: AR4-2J tumors (rCCK2R+); parameters: species or system SCID mice; settings: mouse, in vivo
Method: FIG. 3D: Biodistribution of ^111In-DOTA-MG11 in SCID mice bearing AR4-2J tumors (rCCK2R^+) at 4 h pi.
Biodistribution results in SCID mice bearing rCCK2R^+ AR4-2J tumors 4 h after injection of ^111In-DOTA-MG11 alone or together with PA or 1 h after ip injection of race are shown in FIG. 3B.

CC(C)C[C@H](NP(=O)(O)O[C@@H]1O[C@@H](C)[C@H](O)[C@@H](O)[C@H]1O)C(=O)N[C@@H](Cc1c[nH]c2ccccc12)C(=O)O [Phosphoramidon, phosphoramidon]
IC50 (NEP): 0.034 µM

C[C@H](NC(=O)CN1CCN(CC(=O)O)CCN(CC(=O)O)CCN(CC(=O)O)CC1)C(=O)NCC(=O)N[C@H]1CSSC[C@@H](C(=O)O)NC(=O)[C@H](CO)NC(=O)[C@H]([C@@H](C)O)NC(=O)[C@H](Cc2ccccc2)NC(=O)[C@H]([C@@H](C)O)NC(=O)[C@H](CCCCN)NC(=O)[C@H](Cc2c[nH]c3ccccc23)NC(=O)[C@H](Cc2ccccc2)NC(=O)[C@H](Cc2ccccc2)NC(=O)[C@H](CC(N)=O)NC(=O)[C@H](CCCCN)NC1=O [[(^111In-DOTA)Ala^1]Somatostatin-14, metal not drawn]
uptake in AR4-2J tumor (AR4-2J tumors (rsst2+)): 0.67±0.1 % ID/g

CC(C)C[C@H](NC(=O)[C@@H](NC(=O)[C@H](Cc1ccc(O)cc1)NC(=O)[C@@H]1CCCN1C(=O)[C@H](CCN)NC(=O)[C@H](CCCNC(=N)N)NC(=O)CCNC(=O)C(CNCCN)CNCCN)C(C)(C)C)C(=O)O [[^99mTc]Demotensin 6, ^99mTc-N4-βAla-Arg-Dab-Pro-Tyr-Tle-Leu-OH, metal not drawn] ({X1-βAla}-R[Dab]PY[Tle]L-OH)
uptake in WiDr tumor (WiDr tumors (hNTS1+)): 1.61±0.42 % ID/g | in vitro stability in plasma [1]: stable | in vitro stability in plasma [2]: stable | percentage of parent peptide remaining intact [3]: 52%

CSCC[C@H](NC(=O)[C@H](Cc1c[nH]c2ccccc12)NC(=O)CNC(=O)[C@H](Cc1ccc(O)cc1)NC(=O)[C@H](C)NC(=O)[C@@H](CCC(=O)O)NC(=O)CN1CCN(CC(=O)O)CCN(CC(=O)O)CCN(CC(=O)O)CC1)C(=O)N[C@@H](CC(=O)O)C(=O)N[C@@H](Cc1ccccc1)C(N)=O [^111In-DOTA-MG11, [(^111In-DOTA)DGlu^10]Minigastrin(10-17), metal not drawn] ({DOTA}-[dE]AYGWMDF-NH2)
uptake in AR4-2J tumor (AR4-2J tumors (rCCK2R+); SCID, 4 h): 1.22±0.06 % ID/g | increase in the tumor by PA administration (AR4-2J tumors (rCCK2R+)): > 9 fold | percentage of parent peptide remaining intact [3]: < 5%
